Source: US20250136709A1 (DEVELOPMENT CENTER FOR BIOTECHNOLOGY, published 2025)
Positions count from the first letter of the chain named. Read-outs that look alike come from different tables or passages of the source.

Experiments:
[1] = target: mCD73hF1 (mouse; human) (UniProt Q61503); test: ELISA, antibody titrated; panel mCD73 hF1
[2] = target: mCD73hF2 (mouse; human) (UniProt Q61503); test: ELISA, antibody titrated; panel mCD73 hF2
[3] = target: mCD73hF3 (mouse; human) (UniProt Q61503); test: ELISA, antibody titrated; panel mCD73 hF3
[4] = target: mCD73hF1 (mouse; human) (UniProt Q61503); test: ELISA, antibody titrated; right panel mCD73 hF1
[5] = target: human CD73 on cells (MDA-MB-231, Calu-1, KLM-1, human CD4+ T-cells) (human) (UniProt P21589); test: cell-based or functional assay
[6] = target: T1, mouse CD73 (mouse, UniProt Q61503 29-551, limits assumed); test: ELISA, antibody titrated; panel mCD73
T1 construct: Expressed in F293 cells and used in ELISA
T1 sequence (looked up): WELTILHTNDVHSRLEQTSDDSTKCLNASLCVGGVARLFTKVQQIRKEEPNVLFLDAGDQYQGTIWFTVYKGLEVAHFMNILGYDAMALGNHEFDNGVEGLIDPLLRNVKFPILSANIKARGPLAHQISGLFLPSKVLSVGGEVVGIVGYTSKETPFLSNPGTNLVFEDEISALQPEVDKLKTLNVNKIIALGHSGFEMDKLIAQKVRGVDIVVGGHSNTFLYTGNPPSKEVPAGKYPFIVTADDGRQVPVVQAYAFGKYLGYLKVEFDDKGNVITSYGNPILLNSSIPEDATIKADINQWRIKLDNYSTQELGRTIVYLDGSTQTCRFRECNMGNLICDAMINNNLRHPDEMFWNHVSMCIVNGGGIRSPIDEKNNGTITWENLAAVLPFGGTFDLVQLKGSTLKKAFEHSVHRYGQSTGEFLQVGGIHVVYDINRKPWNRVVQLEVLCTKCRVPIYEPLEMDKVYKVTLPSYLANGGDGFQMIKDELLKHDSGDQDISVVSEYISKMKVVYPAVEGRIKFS

[7] = target: T2, mCD73hF4 (human; mouse, UniProt Q61503 307-551, limits assumed); test: ELISA, antibody titrated; panel mCD73 hF4
T2 construct: Mouse-human domain swapping protein, expressed in F293 cells
T2 sequence: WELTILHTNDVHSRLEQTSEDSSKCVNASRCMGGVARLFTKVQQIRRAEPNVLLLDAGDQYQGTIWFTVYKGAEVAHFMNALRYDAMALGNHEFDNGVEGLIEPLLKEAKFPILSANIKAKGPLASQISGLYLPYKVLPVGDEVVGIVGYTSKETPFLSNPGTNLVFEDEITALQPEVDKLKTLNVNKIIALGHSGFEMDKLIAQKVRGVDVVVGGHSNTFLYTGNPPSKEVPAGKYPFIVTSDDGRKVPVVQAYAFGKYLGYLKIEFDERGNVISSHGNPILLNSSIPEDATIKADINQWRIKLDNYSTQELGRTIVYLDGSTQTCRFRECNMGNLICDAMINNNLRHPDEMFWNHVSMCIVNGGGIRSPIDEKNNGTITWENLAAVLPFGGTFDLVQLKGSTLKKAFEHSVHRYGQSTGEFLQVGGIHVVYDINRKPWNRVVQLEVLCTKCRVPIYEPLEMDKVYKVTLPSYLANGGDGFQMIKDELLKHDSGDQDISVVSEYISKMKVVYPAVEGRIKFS

[8] = target: T1, mouse CD73; test: ELISA, antibody titrated; left panel mCD73
Description: The binding affinities of the above four mutated antibodies, 10H5 antibody, Oleclumab, and IgG to mouse CD73 and mouse CD73 hF1 were respectively analyzed by using ELISA assay.

[9] = target: T3, human CD73 (human, UniProt P21589 27-549); test: Biacore SPR
T3 construct: the antigen of the Biacore assay is only called human CD73 antigen; also called human CD73 antigen; Recombinant Human CD73-6xHis
T3 sequence: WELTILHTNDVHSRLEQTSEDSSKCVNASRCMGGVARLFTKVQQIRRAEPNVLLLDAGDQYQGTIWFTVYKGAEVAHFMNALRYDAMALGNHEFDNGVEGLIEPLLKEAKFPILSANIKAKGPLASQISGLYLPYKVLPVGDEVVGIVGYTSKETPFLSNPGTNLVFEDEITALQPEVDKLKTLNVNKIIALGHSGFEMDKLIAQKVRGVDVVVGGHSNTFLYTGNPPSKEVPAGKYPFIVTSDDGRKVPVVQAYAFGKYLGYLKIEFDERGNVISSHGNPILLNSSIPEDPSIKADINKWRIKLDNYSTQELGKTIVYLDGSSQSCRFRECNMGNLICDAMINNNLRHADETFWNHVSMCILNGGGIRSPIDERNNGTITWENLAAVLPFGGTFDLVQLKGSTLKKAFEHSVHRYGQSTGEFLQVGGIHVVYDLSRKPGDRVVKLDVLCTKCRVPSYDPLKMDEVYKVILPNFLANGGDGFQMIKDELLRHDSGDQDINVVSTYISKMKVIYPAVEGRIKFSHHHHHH

[10] = target: T4, human CD73 on cells (MDA-MB-231, Calu-1, KLM-1, human CD4+ T-cells) (human, UniProt P21589 27-549); test: cell-based or functional assay
T4 sequence: T3 sequence

[11] = target: T3, human CD73; test: Biacore SPR; remark: listed apart in the source
[12] = target: T3, human CD73; test: Biacore SPR; remark: listed apart in the source
[13] = target: T3, human CD73; test: Biacore SPR; remark: listed apart in the source

Oleclumab (antibody) showed an EC50 (read off the curve) [1] of 0.1 nM, an EC50 (read off the curve) [2] of 0.1 nM and an EC50 (read off the curve) [3] of 0.1 nM. The EC50 (read off the curve) [4] was 0.1 nM.

B1: Oleclumab (antibody, V domains shown)
VH: EVQLLESGGGLVQPGGSLRLSCAASGFTFSSYAYSWVRQAPGKGLEWVSAISGSGGRTYYADSVKGRFTISRDNSKNTLYLQMNSLRAEDTAVYYCARLGYGRVDEWGRGTLVTVSS
VL: QSVLTQPPSASGTPGQRVTISCSGSLSNIGRNPVNWYQQLPGTAPKLLIYLDNLRLSGVPDRFSGSKSGTSASLAISGLQSEDEADYYCATWDDSHPGWTFGGGTKLTVL
Work on B1 yielded an AMP concentration in supernatant by LC/MS, MDA-MB-231 cells, 400 µM AMP, 10 nM antibody, 6 hours [5] of 324 µM, an AMP concentration in supernatant by LC/MS, MDA-MB-231 cells, 400 µM AMP, 10 nM antibody, 24 hours [5] of 147 µM and an AMP consumption, Calu-1 cells, 10 nM antibody, 24 hrs [5] of over 90%. For the same molecule, the AMP consumption, MDA-MB-231 cells, 10 nM antibody, 6 hr [5] was under 20%, the AMP consumption, MDA-MB-231 cells, 10 nM antibody, 24 h [5] was over 90% and the CFSE left-shift level of CD3/CD28-activated CD4+ T-cells with 400 µM AMP, 10 nM antibody, 3 days [5] was 72.9%. The “EC50 (read off the curve)” value [6] was about 0.1 nM, the “EC50 (read off the curve)” value [7] was about 0.1 nM and the “EC50 (read off the curve)” value [8] was about 0.1 nM.

B2: 10H5-CDRH1N35A (antibody, V domains shown)
VH: QVKLQQSGAELVKPGASVKISCKASGYVFSSYWIAWVKQRPGKGLEWIGQIYPGDGNTNYNRNFKGKATLTADKSSSTAYMQLSSLTSEDSAVYFCAGFADWGQGTTVTVSS
VL: DIELTQSPSSLSASLGERVSLTCRASQDIGDSLIWLQQEPDGTIKRLIYATSSLDSGVPKRFSGSRSGTSYSLTISSVEAEDAATYYCQQYSGYPLTFGSGTKLEIK
notes: Alanine mutant of 10H5; printed '10H5-CDRHIN35A'; also called 10H5-CDRHIN35A
B2: no binding (tested: about 5e-8 M) [8].

B3: 10H5-CDRH1W33A (antibody, V domains shown)
VH: B2 VH with W33A, A35N
VL: B2 VL
notes: Alanine mutant of 10H5
B3: no binding (tested: about 5e-8 M) [8].

B4: 10H5-CDRL3Y91A (antibody, V domains shown)
VH: B2 VH with A35N
VL: B2 VL with Y91A
notes: Alanine mutant of 10H5
B4: no binding (tested: about 5e-8 M) [8].

B5: 10H5-CDRH3F95A (antibody, V domains shown)
VH: B2 VH with A35N, F99A
VL: B2 VL
notes: Alanine mutant of 10H5
B5: no binding (tested: about 5e-8 M) [8].

B6: HuB10/HdB7 (antibody, V domains shown)
VH: QVQLVQSGAEVKKPGASVKVSCKASGYVFSSYWINWVRQAPGQGLEWMGQIYPGDGNTNYNRNFKGRVTLTADKSTSTAYMELSSLRSEDTAVYYCAGFADWGQGTLVTVSS
VL: DIQLTQSPSSLSASVGDRVTITCRASQDIGDSLIWLQQKPGKAPKRLIYATSSLDSGVPSRFSGSRSGTDYTLTISSLQPEDFATYYCQQYSGYPLTFGQGTKVEIK
notes: Humanized 10H5; also called HuVHB10/HdVLB7; humanized 10H5 derivative
With B6 the Kd [9] was 0.678 nM, the “AMP concentration in supernatant by LC/MS, MDA-MB-231 cells, 400 µM AMP, 10 nM antibody, 6 hours” value (shortened to “AMP concentration in supernatant … 6 hours”) [10] was 331 µM and the “AMP concentration in supernatant by LC/MS, MDA-MB-231 cells, 400 µM AMP, 10 nM antibody, 24 hours” value (“AMP concentration in supernatant … 24 hours” below) [10] was 287 µM. The “AMP consumption, Calu-1 cells, 10 nM antibody, 24 hrs” value (shortened to “AMP consumption, Calu-1 cells”) [10] was under 20%, the “AMP consumption, MDA-MB-231 cells, 10 nM antibody, 6 hr” value (shortened to “AMP consumption … 6 hr”) [10] was under 10% and the “AMP consumption, MDA-MB-231 cells, 10 nM antibody, 24 h” value [10] was under 50%. The “CFSE left-shift level of CD3/CD28-activated CD4+ T-cells with 400 µM AMP, 10 nM antibody” value [10] was 83.4%, the koff [11] was 6.54e-05 s⁻¹ and the kon [11] was 96400 M⁻¹ s⁻¹.

B7: HuB9/HdB7 (antibody, V domains shown)
VH: B6 VH with V68A, Y95F
VL: B6 VL
notes: Humanized 10H5; also called HuVHB9/HdVLB7; humanized 10H5 derivative
For B7, the Kd [9] was 0.623 nM, the “AMP concentration in supernatant … 6 hours” value [10] was 345 µM and the “AMP concentration in supernatant … 24 hours” value [10] was 298 µM. For the same molecule, the “AMP consumption, Calu-1 cells” value [10] was under 20%, the “AMP consumption … 6 hr” value [10] was under 10% and the “AMP consumption, MDA-MB-231 cells, 10 nM antibody, 24 h” value [10] was under 50%. For the same molecule, the “CFSE left-shift level of CD3/CD28-activated CD4+ T-cells with 400 µM AMP, 10 nM antibody” value [10] was 83.5%, the koff [12] was 6.36e-05 s⁻¹ and the kon [12] was 102000 M⁻¹ s⁻¹.

B8: HuB10/HdB6 (antibody, V domains shown)
VH: B6 VH
VL: B6 VL with P44I, L78V
notes: Humanized 10H5; also called HuVHB10/HdVLB6; humanized 10H5 derivative
With B8 the Kd [9] was 0.803 nM, the “AMP concentration in supernatant … 6 hours” value [10] was 336 µM and the “AMP concentration in supernatant … 24 hours” value [10] was 286 µM. The “AMP consumption, Calu-1 cells” value [10] was under 20%, the “AMP consumption … 6 hr” value [10] was under 10% and the “AMP consumption, MDA-MB-231 cells, 10 nM antibody, 24 h” value [10] was under 50%. For the same molecule, the “CFSE left-shift level of CD3/CD28-activated CD4+ T-cells with 400 µM AMP, 10 nM antibody” value [10] was 83.7%, the koff [13] was 6.57e-05 s⁻¹ and the kon [13] was 81800 M⁻¹ s⁻¹.
